The text below walks through data of article PMC12098869, “An mRNA-display derived cyclic peptide scaffold reveals the substrate binding interactions of an N-terminal cysteine oxidase” (Nature Communications, 2025).

For assay [1], the target named is T1, 2-aminoethanethiol dioxygenase (ADO), wild type, biotinylated (pQE80L-Navi-ADO) (human, biotin on the Avi tag).
T1 construct: 2-aminoethanethiol dioxygenase (ADO), human, full length; also called Biotinylated-ADO; source: E. coli Rosetta2(DE3), purified (Ni-NTA, SEC); not shown: Avi tag, N-terminal, kept; His6, N-terminal, kept
T1 chain: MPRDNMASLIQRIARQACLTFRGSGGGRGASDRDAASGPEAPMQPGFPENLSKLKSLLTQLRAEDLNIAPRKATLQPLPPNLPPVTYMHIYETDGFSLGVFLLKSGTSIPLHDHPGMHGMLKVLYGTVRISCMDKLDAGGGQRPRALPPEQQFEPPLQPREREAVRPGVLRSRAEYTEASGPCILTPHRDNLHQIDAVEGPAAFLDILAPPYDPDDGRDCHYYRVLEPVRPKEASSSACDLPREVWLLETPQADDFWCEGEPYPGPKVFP
Description: SPR; single-cycle kinetics (SCK), 1:1 binding model; biotinylated ADO or variant immobilised on a Biotin CAP chip, peptide injected at 25.6, 64, 160, 400, 1000 nM; 4 °C; 20 mM HEPES pH 7.5, 500 mM NaCl, 10 mM DTT, 0.1% (v/v) tween-20; 50 μL/minute. The settings on record: both partners purified. A general note: In SPR one partner is held on a chip, and binding of the other changes the refractive index at the surface.

The target of assay [2] is T2, 2-aminoethanethiol dioxygenase (ADO), full-length human, N-terminally His-tagged and biotinylated … (human, UniProt Q96SZ5 1-270, biotin (biotinylated during expression, 0.2 mM biotin added)).
T2 sequence (looked up): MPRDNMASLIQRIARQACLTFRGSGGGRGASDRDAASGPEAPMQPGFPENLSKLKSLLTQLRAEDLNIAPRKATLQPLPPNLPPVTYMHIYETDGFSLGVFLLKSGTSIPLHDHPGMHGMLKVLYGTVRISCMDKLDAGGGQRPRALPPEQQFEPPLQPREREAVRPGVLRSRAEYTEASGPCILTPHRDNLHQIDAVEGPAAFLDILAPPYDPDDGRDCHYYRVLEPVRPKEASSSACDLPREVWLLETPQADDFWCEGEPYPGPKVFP
Description: cell-based or functional assay.

For assay [3], the target named is 2-aminoethanethiol dioxygenase (ADO), wild type, biotinylated (pQE80L-Navi-ADO) (human).
The target in assay [4] is 2-aminoethanethiol dioxygenase (ADO), full-length human, N-terminally His-tagged and biotinylated (pQE80L-Navi-ADO) (human) (UniProt Q96SZ5).
The target in assay [5] is 2-aminoethanethiol dioxygenase (ADO), wild type, biotinylated (pQE80L-Navi-ADO) (human). Description: SPR; single-cycle kinetics (SCK), 1:1 binding model; biotinylated ADO or variant immobilised on a Biotin CAP chip, peptide injected at 25.6, 64, 160, 400, 1000 nM; 4 °C; 20 mM HEPES pH 7.5, 500 mM NaCl, 10 mM DTT, 0.1% (v/v) tween-20; 50 μL/minute.
Assay [6] has as its target T3, 2-aminoethanethiol dioxygenase (ADO), full-length human, N-terminally His-tagged and biotinylated … (human, UniProt Q96SZ5 1-270, biotin (biotinylated during expression, 0.2 mM biotin added)).
T3 construct: 2-aminoethanethiol dioxygenase (ADO), human, UniProt Q96SZ5, full length; Immobilised through its biotin on a Biotin CAP chip for SPR; also called wild type ADO; Biotinylated-ADO; source: E. coli Rosetta2(DE3), purified (Ni-NTA, SEC); not shown: biotinylation tag (from the vector pQE80L-Navi), N-terminal, kept
T3 sequence (looked up): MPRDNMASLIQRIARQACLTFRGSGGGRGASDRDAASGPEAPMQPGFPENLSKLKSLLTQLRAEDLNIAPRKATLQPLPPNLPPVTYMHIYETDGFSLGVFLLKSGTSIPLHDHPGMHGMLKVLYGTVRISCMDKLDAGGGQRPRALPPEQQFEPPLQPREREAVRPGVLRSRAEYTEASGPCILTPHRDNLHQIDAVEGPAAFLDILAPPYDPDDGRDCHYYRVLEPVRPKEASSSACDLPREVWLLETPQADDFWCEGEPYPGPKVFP
Description: SPR; single-cycle kinetics (1:1 binding model); biotinylated ADO immobilised on a Biotin CAP chip (~2500-3000 RU), cyclic peptide injected; Biacore T200, 4 °C; 20 mM HEPES pH 7.5, 500 mM NaCl, 10 mM DTT, 0.1% tween-20; 50 µL/minute; each cell is one of three independent measurements. As to conditions: both partners purified.

Where “and” joins values, the source holds several entries; their conditions need not be identical. Equal values may be shown once. Bridges are numbered along the chain shown (N, C = ends). Where no end group is shown, it is not given here.

B1: cyclic peptide CP6 (peptide)
peptide: {CH2CO}-YIVKTFWLGSHRQC-NH2
modifications: thioether N-14
SMILES: CC[C@H](C)[C@@H]1NC(=O)[C@H](Cc2ccc(O)cc2)NC(=O)CSC[C@@H](C(N)=O)NC(=O)[C@H](CCC(N)=O)NC(=O)[C@H](CCCNC(=N)N)NC(=O)[C@H](Cc2c[nH]cn2)NC(=O)[C@H](CO)NC(=O)CNC(=O)[C@H](CC(C)C)NC(=O)[C@H](Cc2c[nH]c3ccccc23)NC(=O)[C@H](Cc2ccccc2)NC(=O)[C@H]([C@@H](C)O)NC(=O)[C@H](CCCCN)NC(=O)[C@H](C(C)C)NC1=O
notes: selected by RaPID mRNA display against ADO; also called ADO-L-06; source: synthetic peptide (Fmoc-SPPS)
For the molecule B1, the dissociation constant (Kd) (usually the concentration at which binding is half-saturated) in assay [1] is 30 nM.

Take {CH2CO}-YIVATFWLGSHRQC (thioether N-14) [CP6-K4A]: in assay [2], the “IC50 of inhibition of ADO activity” value worked out at 21000 nM.

B2: CP6-F6S (peptide)
peptide: {CH2CO}-YIVKTSWLGSHRQC
modifications: thioether N-14
notes: the substitution F6S is to be applied to them; Single amino acid substituent of CP6; source: synthetic peptide
The molecule B2 came in with an IC50 of inhibition of ADO activity (oxidation of RGS5 (2-15) followed by LCMS; enzyme from the pET28a-ADO construct); blocks ADO with RGS5 (2-15) in assay [3] of 0.19 µM. The molecule also showed an IC50 of inhibition of ADO activity in assay [4] of 200 nM. Besides, the Kd is 5.8 nM in assay [5]; 5.8 nM and 5.64 nM and 5.96 nM in assay [6].
